Experimental data: paper PMC4579600, “Structure of HCMV glycoprotein B in the postfusion conformation bound to a neutralizing human antibody” (Nature Communications, 2015)
Values joined by “and” are separate entries in the source; they are usually repeats but may differ in a detail not shown here. Equal values may be shown once.

Experiments:
[1] = molecular target: HCMV glycoprotein B ectodomain ΔNgB-glyco (HCMV (Merlin strain)) (UniProt F5HB53)
[2] = molecular target: 1G2 IgG (neutralizing human monoclonal antibody) (human); assay: SPR
[3] = molecular target: 1G2 IgG light chain R51A (human); assay: SPR
[4] = molecular target: 1G2 IgG heavy chain R31S (human); assay: SPR
[5] = molecular target: 1G2 IgG heavy chain Y103A (human); assay: SPR
[6] = molecular target: 1G2 IgG heavy chain N102A (human); assay: SPR
[7] = molecular target: 1G2 IgG light chain Y50A (human); assay: SPR
[8] = molecular target: 1G2 IgG heavy chain S32A (human); assay: SPR
[9] = molecular target: 1G2 IgG heavy chain F104A (human); assay: SPR
[10] = molecular target: 1G2 IgG heavy chain Y109A (human); assay: SPR
[11] = molecular target: T1, HCMV glycoprotein B ectodomain gB-698glyco (Human cytomegalovirus, Merlin, UniProt F5HB53, Ile156His | His157Arg | Trp240Asn | Tyr242Thr | Cys246Ser | Arg457Ser | …); assay: co-IP; soluble gB ectodomain (gB-698glyco) in 1% NP40, incubated with 10 μg 1G2 for 16 h at 4 °C, Dynabeads Protein A, blot with ITC88; details: both partners purified
T1 construct: also called postfusion gB; soluble gB ectodomain; source: CHO lec- cells, stably expressed, secreted, purified (Ni-NTA, SEC)

full-length WT HCMV gB [12] = molecular target: T2, full-length WT HCMV gB (HCMV (strain ), UniProt F5HB53); assay: flow cytometry on cells; BHK cells electroporated with full-length gB RNA, surface stained with 1 μg antibody per sample, goat anti-human IgG Alexa Fluor 647; gated on viable, dsRNA+ cells; details: one partner purified
T2 construct: also called FL-gB; membrane-anchored full-length gB; source: BHK cells electroporated with RNA encoding full-length gB, on the cell surface

[13] = molecular target: T3, HCMV virion gB (strain VR1814) (Human cytomegalovirus (HHV-5), strain …, UniProt Q69163, strain); assay: co-IP; cushion-purified VR1814 virions (500 μg) lysed in 1% NP40, incubated with 10 μg 1G2 for 16 h at 4 °C, Dynabeads Protein A, blot with ITC88; details: one partner purified
T3 construct: also called gB from virions; source: cushion-purified VR1814 virions, lysed in 1% NP40

full-length WT HCMV gB [14] = molecular target: T2, full-length WT HCMV gB; assay: cell-based or functional assay

“1G2 IgG (neutralizing human monoclonal antibody)” gave a neutralisation EC50, HCMV TB40/E infection of ARPE-19 epithelial cells [1] of 0.1 µg/mL.

Work on “ΔNgB-glyco F298A (from UniProt F5HB53 25-698) (domain or fragment)” yielded a Kd [2] of 0.26 nM, a koff [2] of 5.59e-05 s⁻¹ and a kon [2] of 214000 M⁻¹ s⁻¹.

In the case of “ΔNgB-glyco N293A/D295A (from UniProt F5HB53 25-698) (domain or fragment)”, the Kd [2] is reported as 0.35 nM, the koff [2] is reported as 8.43e-05 s⁻¹ and the kon [2] is reported as 240000 M⁻¹ s⁻¹.

In the case of “ΔNgB-glyco F290A (from UniProt F5HB53 25-698) (domain or fragment)”, the Kd [2] is reported as 3.79 nM, the koff [2] is reported as 0.000249 s⁻¹ and the kon [2] is reported as 66000 M⁻¹ s⁻¹.

Work on “ΔNgB-glyco T283A (from UniProt F5HB53 25-698) (domain or fragment)” yielded a Kd [2] of 0.23 nM, a koff [2] of 6.99e-05 s⁻¹ and a kon [2] of 310000 M⁻¹ s⁻¹.

Work on “ΔNgB-glyco F297A (from UniProt F5HB53 25-698) (domain or fragment)” yielded a Kd [2] of 13.7 nM, a koff [2] of 0.000267 s⁻¹ and a kon [2] of 19000 M⁻¹ s⁻¹.

With “ΔNgB-glyco N281A (from UniProt F5HB53 25-698) (domain or fragment)” the Kd [2] was 0.21 nM, the koff [2] was 4.57e-05 s⁻¹ and the kon [2] was 218000 M⁻¹ s⁻¹.

Work on “ΔNgB-glyco N284A (from UniProt F5HB53 25-698) (domain or fragment)” yielded a Kd [2] of 0.24 nM, a koff [2] of 7.66e-05 s⁻¹ and a kon [2] of 320000 M⁻¹ s⁻¹.

“ΔNgB-glyco E292A (from UniProt F5HB53 25-698) (domain or fragment)” showed a Kd [2] of 0.82 nM, a koff [2] of 0.000108 s⁻¹ and a kon [2] of 132000 M⁻¹ s⁻¹.

With “ΔNgB-glyco Y280A (from UniProt F5HB53 25-698) (domain or fragment)” the Kd [2] was 29.3 nM, the koff [2] was 0.000195 s⁻¹ and the kon [2] was 7000 M⁻¹ s⁻¹.

With “ΔNgB-glyco I299A (from UniProt F5HB53 25-698) (domain or fragment)” the Kd [2] was 0.58 nM, the koff [2] was 9e-05 s⁻¹ and the kon [2] was 155000 M⁻¹ s⁻¹.

In the case of “ΔNgB-glyco YND-AAA (Y280A/N293A/D295A) (from UniProt F5HB53 25-698) (domain or fragment)”, the Kd [2] is reported as 18.7 nM, the koff [2] is reported as 0.000392 s⁻¹ and the kon [2] is reported as 21000 M⁻¹ s⁻¹.

Molecule “ΔNgB-glyco N286A (from UniProt F5HB53 25-698) (domain or fragment)” has a Kd [2] of 0.07 nM, a koff [2] of 4.89e-05 s⁻¹ and a kon [2] of 724000 M⁻¹ s⁻¹.

Work on “HCMV glycoprotein B ectodomain ΔNgB-glyco (from UniProt F5HB53 25-698) (domain or fragment)” yielded a Kd [3] of 0.16 nM, a koff [3] of 5.11e-05 s⁻¹ and a kon [3] of 327000 M⁻¹ s⁻¹. The Kd [2] was 0.13 nM and 0.17 nM, the koff [2] was 3.75e-05 s⁻¹ and 6.36e-05 s⁻¹ and the kon [2] was 295000 M⁻¹ s⁻¹ and 370000 M⁻¹ s⁻¹. It also gave a Kd [4] of 0.22 nM, a koff [4] of 6.07e-05 s⁻¹ and a kon [4] of 273000 M⁻¹ s⁻¹. The Kd [5] was 2.36 nM, the koff [5] was 0.000766 s⁻¹ and the kon [5] was 325000 M⁻¹ s⁻¹. For the same molecule, the Kd [6] was 1.71 nM, the koff [6] was 0.000526 s⁻¹ and the kon [6] was 306000 M⁻¹ s⁻¹. It also gave a Kd [7] of 0.33 nM, a koff [7] of 0.000118 s⁻¹ and a kon [7] of 357000 M⁻¹ s⁻¹. For the same molecule, the Kd [8] was 0.03 nM, the koff [8] was 1.06e-05 s⁻¹ and the kon [8] was 396000 M⁻¹ s⁻¹. For the same molecule, the Kd [9] was 1.53 nM, the koff [9] was 0.00045 s⁻¹ and the kon [9] was 294000 M⁻¹ s⁻¹. For the same molecule, the Kd [10] was 0.24 nM, the koff [10] was 7.67e-05 s⁻¹ and the kon [10] was 324000 M⁻¹ s⁻¹.

B1: 1G2 IgG (neutralizing human monoclonal antibody) (antibody, V domains shown)
VH: QLQLQESGPGLVKPSETLSLTCTVSGASIDRSTYYWGWIRQPPGKGLEWIANIYYNGRAVYSPSLKSRVTISVDTSKNQFSLKVRSLTAADTAVYYCATRWNYFFDFDYWGRGTLVTVSS
VL: QSVLTQPPSASGTPGQRVTISCSGSSSNIETNYVSWYQQFPGTAPKLLIYRNNQRPSGVPDRFSGSKSGTSASLAISGLRSEDEAEYYCGTWDDNSWVFGGGTKLTVL
notes: IgG1; also called 1G2 mAb; WT 1G2
B1: binds [11]; binds (full-length WT HCMV gB [12]); binds [13]. The “neutralisation EC50, gB on virus of HCMV strain 8816 (Ala287), ARPE-19 cells” value (full-length WT HCMV gB [14]) was 0.046 µg/mL, the “neutralisation EC50, gB on virus of HCMV strain 8819 (Ala287), ARPE-19 cells” value (full-length WT HCMV gB [14]) was 0.485 µg/mL and the “neutralisation EC50, gB on virus of HCMV strain 8819 (Ala287), NHDF cells” value (full-length WT HCMV gB [14]) was 0.85 µg/mL. The “neutralisation EC50, gB on virus of HCMV strain 8822 (Ala287), ARPE-19 cells” value (full-length WT HCMV gB [14]) was 0.319 µg/mL, the “neutralisation EC50, gB on virus of HCMV strain 8822 (Ala287), NHDF cells” value (full-length WT HCMV gB [14]) was 0.485 µg/mL and the “neutralisation EC50, gB on virus of HCMV strain 8824 (Ala287), ARPE-19 cells” value (full-length WT HCMV gB [14]) was 0.019 µg/mL. The “neutralisation EC50, gB on virus of HCMV strain 8824 (Ala287), NHDF cells” value (full-length WT HCMV gB [14]) was 0.043 µg/mL, the “neutralisation EC50, gB on virus of HCMV strain TM-28175 (Ala287), NHDF cells” value (full-length WT HCMV gB [14]) was 0.138 µg/mL and the “neutralisation EC50, gB on virus of HCMV strain TR (Ala287), ARPE-19 cells” value (full-length WT HCMV gB [14]) was 0.248 µg/mL. The “neutralisation EC50, gB on virus of HCMV strain TR (Ala287), NHDF cells” value (full-length WT HCMV gB [14]) was 0.303 µg/mL.
